This passage reports stoichiometry N results from PMC2120794.

The assay addresses type I collagen (triple helix). Description: SPR. The note with it: scale: molecules of HSP47 per triple helix of type I collagen.

B1: recombinant mouse HSP47 (natural protein)
chain: AEVKKPLEAAAPGTAEKLSSKATTLAERSTGLAFSLYQAMAKDQAVENILLSPLVVASSLGLVSLGGKATTASQAKAVLSAEKLRDEEVHTGLGELLRSLSNSTARNVTWKLGSRLYGPSSVSFADDFVRSSKQHYNCEHSKINFRDKRSALQSINEWASQTTDGKLPEVTKDVERTDGALLVNAMFFKPHWDEKFHHKMVDNRGFMVTRSYTVGVTMMHRTGLYNYYDDEKEKLQMVEMPLAHKLSSLIILMPHHVEPLERLEKLLTKEQLKAWMGKMQKKAVAISLPKGVVEVTHDLQKHLAGLGLTEAIDKNKADLSRMSGKKDLYLASVFHATAFEWDTEGNPFDQDIYGREELRSPKLFYADHPFIFLVRDNQSGSLLFIGRLVRPKGDKMRDEL
Molecule B1 came in with a stoichiometry N greater than 7.
